Laboratory results reported in publication PMC7862291 (2021).

B1: wild type human KMO (Hs-KMO), NanoBRET constructs [human] / itself (parent complex)
chain: MDSSVIQRKKVAVIGGGLVGSLQACFLAKRNFQIDVYEAREDTRVATFTRGRSINLALSHRGRQALKAVGLEDQIVSQGIPMRARMIHSLSGKKSAIPYGTKSQYILSVSRENLNKDLLTAAEKYPNVKMHFNHRLLKCNPEEGMITVLGSDKVPKDVTCDLIVGCDGAYSTVRSHLMKKPRFDYSQQYIPHGYMELTIPPKNGDYAMEPNYLHIWPRNTFMMIALPNMNKSFTCTLFMPFEEFEKLLTSNDVVDFFQKYFPDAIPLIGEKLLVQDFFLLPAQPMISVKCSSFHFKSHCVLLGDAAHAIVPFFGQGMNAGFEDCLVFDELMDKFSNDLSLCLPVFSRLRIPDDHAISDLSMYNYIEMRAHVNSSWFIFQKNMERFLHAIMPSTFIPLYTMVTFSRIRYHEAVQRWHWQKKVINKGLFFLGSLIAISSTYLLIHYMSPRSFLRLRRPWNWIAHFRNTTCFPAKAVDSLEQISNLISR

Variants of: B1
Assay: NanoBRET; HEK293T cells; + ligand (TMR ligand); n = 6; read off a plot

Variant	response [mBU]
chain 1 D184A, chain 1 Y185P, chain 1 Q187A	~78
